From a protein production outcome set (Wang et al. 2014) come the findings set out here.
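Also: failed if final PepcDB status was selected cloned or expressed and not failed if soluble or beyond.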

A short description of this data set: label from the status in PepcDB records.
Consider “MKSAELKYLDFEDFTKLIALAKEKINPIYSSSFMIYIAAMTGMRFSELLGLTWDNVDFEKGQIYVKRTWDIYKNNFAPTKNDQSVRFLAIDSSTMQVMINYKEQQEKLLKRLEIEPEHPFVFYNIKNGLITNNSLNKQLRNMCKKLGFKKIITCHGLRHTHASTMLYKGINILYVSKRLGHSSLNVTMSVYSHILKLEHHHHHH”, for which the protein production entry is given as “failed”. With “MKSFDGHNDLLARLWLSEHPDPVGMFLKGQLPGHLDFARCQQAQFAGGLFAIFVPPFDYVKNNHPYKLRKSAQAGFDTQDIHHIVFTQLDYIKQIASRSDRRIQICLSVEDIQFCLQQDIMAVVIHLEGAEVLDSEFGVLEQLHARGLRSIGPLWNLPNQFGHGLQASFPHSPDTGLGLTDQGKALIQLCSEKRIMIDVSHMNEKAFWDTAKISELPLIATHSNVHQLCPQPRNLTDAQLEAIQASQGCVGVNFDTAFLRPDGQRNAATSLDLILEHIEYLMHKLGEDQVAFGSDFDGGFISDHLKDVTGLIHLQQAFERRGYSQALQEKLCHQNWLSALQRVWHPAC” the entry was “failed”; with “MKSHAEVVKTRHHEYSLVFPVIALVVLYIWGNSQDFIAILGINAVALAGILFSAFSVVRHADVLAHRLGEPYGSLILSLSVVILEVSLISALMATGDAGPDLMRDTLYSIIVIVTGGLVGFALLLGGRKFATQYVNLSGIKQYLMAIFPLAVIVLVFPSALPDGNFSVTQSLIVAAISAAMYGVFLLIQTRTHQSLFVYEHEDEGDGDDPHHGKPSAHSSLWHTGWLLVHLIAVIAVTKTNSMPLETLLTEMNAPTQFTGFLVALLILSPEGLGAIRAVLKNQVQRAMNLFFGSVLATISLTVPTVTIIAMITGRTLNFGLDMPHIVVMLSVLVLCHITFSTGRTNVLSGSAHLALFAAYLITITL”, “failed”; with “MKSHQLLKAPFQHGFLFSRPLVMYCFKTCHDSAWKHYIRFLKYRHEKLYEEALSEIDNAIKVCNSIAFRYFLLSEKLTVLGYMGKHEEGIKLYSHLRGRMRNVSPNLRSIFIGNLLNYCSMYLHNAFECLGRIKPEAHHLEKSSYAFILIGKARYMARTGNVKEAIESYEKALKILQEIPHPSGIIACLNDMAWYTKEKDPEKAKDMAEEALYWNGYFFDAPRFYALDTLFEVQRTTSDPAIVETARLIEIASEGLKDSASDLLKKDQRLFLRLNNSLYRNTKSLQRFLRRNTTSIKHLSEITGVARNRLSDILNGKTQKIRGETLRKIAKAFEKSNILSFPPPLLSEWVKLRIEENFSAALREIKTKRLEERQILFLSTYTALIDRKFLSRKERLKKAYTLLEDIESFADFMAKDHRTMEFVVSMVKAHPFVEGRKEAVKRALARMKRKRLERFVLRYIEMKESDRKLLDRFLRNYGRYDGVRFGIRLKGPEVVREFAKKYSLKVQPLFAAFWCEEDGRVRRRLERVLKHMVLN”, “failed”. The value for “MKSKWIFIQWFKYNNIRMKDESTNKFGSLNLAVLVLSVYVLGALIVDTTIKLPEETSRLLNYIDLAICIFFFVEFCIRLYHADSKMKFMRWGWIDLVSSIPMINFLRFGRVFRLIRLFRILRAFRTTKEFVTYVFRIKAQGAFTSATILAILLIIFSSIAILQVENASTSNITTAEDAIWWSYVTITTVGYGDKYPVTTEGRIIAMFLMTAGVGLFGTFTAYIASLFVSDNKKEETETKE” was “failed”; that for “MKSLYRSRMANHSKHGRPFTLSLPNRSQCVKIVATFAAVGLLATGGIISRSFYTSSTQAEPTTRVTAYSATDAEASRGNAREALGGDTAYVTVKINGKSRVVPGTNFTNVKSVLEAGNITLEPEDTVSPSLTTKVDEKTVITVSRAGASVEVSDSSIAFNVVKKETSSLPKGQEKVETEGEEGVMESTNLVTRSGDTVISSNMISSYVKKAPVDKVVLVGTGSTSTSSSSSSSSSTASVGTTVPAGEMQQWAHDYLISNGYTEADFTATVYIISHESGWSVSATNPSSGAYGLPQALPGSKMVSAGADWATNYQTQLKWFWGYCASRYGSIQGAYSYWLAHKCY” was “failed”; that for “MKSQNPSKRNLPGVIIAYFLIYVVWGSTYFFIGVALKDFSPFLLGALRFTTAGLILLGICYLRGEQIFKKSLVKRSAVSGIVLLFVDMAVVMLAQRYLTSSLVAIIASSTALWILLLDVPMWRTNFRNPLTIAGGGIGFGGVVMLYAEQLNAEWLHPQSERGILLLVFGCISWALGTLYAKYRSSREEEVNAFAGSAWQMLFASVMFWICAVVNGDVREADLSTVSVTSWFSLLYLISFGSLLAYSAYVWLLKVRPAAEVGTHAYVNPFIAVLLGVSFGNEQVTFVQLSGLLVILLGVMLISRKRNKMKSTAISR” was “failed”. The value for “MKSQWECFLQNLGVWEGSFSNFSPEGTLLNDTSSRLCLEGLNNNQTVRLTLSRSGKDDVIREFRSVGGGLLFFENGSFSEGLIQLGPFSEFGGELAFVHENRRLRLVQLFDRNGHLNGLTLIREHLAGTPVAERPLLQINDLLGEWRGQAVTIYRDLRPPDIYSTTLKIQLDDAGRLMQSTSFGERTITSTATIKGSIVLFDQDPEKQVQVLLLPDGASATSPLKVQLRQPLFLEAGWLIQSDLRQRMIRSYNDKGEWVSLTLVTEERV” was “not failed”. Take “MKSRTSELAAGIFVIIFGVALFFLAMKVSGLAGTNLSDPYTMTAQFDNVNGLKPRAKVTMSGVTIGRVDAITLDPVTRLATVTFDLDGKLTTFNAKQLKTVEQNALEELHYSSDYKSAEPAKQKVMEQQLIDNMKSITSIDEDAYIMVSTNGLLGEKYLKIVPGGGLNYLKRGDAITNTQGTMDLEDLISKFITGGAGKSSDNSTGTAAQSSSSEDKEPSFTELEHHHHHH”: the protein production entry is given as “failed”. With “MKSSTMTSDYYKQTQIDQTLRLREVLKTLPPFAKDYFRAMEPKSSAKTRINYAYDIRVFFHFLLENNPIYKNYTMDQFRVQDLERIEPVDIEEYMEYLKVYKREDNEMITNGERGLKRKMSALRSFYSYYFKHQYIATNPTLLEHHHHHH” the entry was “failed”; with “MKSSVVSAWDMLWRSHREAKRLLLFAMPVRAGKDAGLKINSEQTMKEEKPPSYKTPQKIGLLLGPALFFAVLLFFFPEGLSYEGRMVLATTLWVAVWWITEAVPIPAASLLPIVLLPLTGALEGAAVTSSYGDPIVFLFLGGFLIALAMERWNLHKRIALNIISVVGTSTSRIVLGFMAATGFLSMWVSNTAAVMMMLPIGTAIIHQVSAVIKSERKDLAAEEAKFSKALIFSIGYAGTIGGLGTLIGTPPNIILAANIKKLYGVEVSFGGWMAFAVPVVVILLVAVWLYLTKVAHPIKMKELPGGKELILEEKRKLGKMSFEETMVLLVFGFAAFMWVTRTFLWDDKIPGIDDTMIAIFAASLLFLIPSLNKGGRVLDWSVSKDLPWGILLLFGGGLALATGFKETGLAEWIGGRLTVLDGFNFVVIVIISTALVLFLTEITSNTATATMILPVLASLALALNVHPYALMVPAAMAANCAFMLPVGTPPNAIIFASGKLKISEMVRTGFVINIFTLILIVGAVFYILPHLWGVDLTVFPDNLKSN”, “failed”; with “MKSVFHLWRSHMRHLNDMALFVEVARARSFRKAAEALGMPNSTLSRRVSELEKAIGLRLLHRTTRKIELTEAGQLYYERSKRIVDEARLAHEQLGAMLNQPSGVLRVSLPVNLATFYLTPIIGEFARHYPGITFEFDLTPRRVDLVAEPFDVAIRIGKLEDSGLITRLIGRHSRHLYASPGYIEASGEPATPAELAEHECIGMLRSPIWSLHQGINKVDVAVRGRFTLNSVGMIRALAVNHQGIALLPEKIVAEDVAFGRLRRILPEWQGSAVSIFAVTETRLIPAKTQRFIEFLSSRLMEA”, “failed”. The value for “MKSVIFTEEKNLQRQNPLQKSEQQRRNFEMPSPPTTTSLSVTQTINGSHSFTIKGYSLAKGIGIGKHIASDTFTVGGYQWAIYFYPDGKNPEDNSAYVSVFIALASDGTDVRALFELSLLDQSGKGKHKVHSHFDRALESGPYTLKYRGSMWGYKRFFRRLMLETSDFLKDDCLKINCTVGVVVSEIDCPRLHSIHVPASDIGSHFGMLLENEDGSDITFNVSGEKFRAHRLVLAARSPVFESEFLDVTGEEDRDIEVTDMEPKVFKALLHYIYKDALIEDAESSSSSGSSVGPSASDTLAAKLLGAADKYKLPRLSLMCESVLCKDISVDSVANILALADRYNASALKSVCLKFAAENLIAVMRSDGFDYLREHCPSLQSELLKTVAGCEEELSGGGGKTRSVWGQFSDGGAETNGRQAQTWGDINGGAERSQSVWVEVVNANGSGRNNNDNNNSDDPMAELED” was “failed”.
